In assay [1] the target is human Siglec-9 expressed on human cells (human) (UniProt Q9Y336). The assay can be described thus: cell-based or functional assay.
Assay [2] shares this target. The assay can be described thus: flow cytometry on human primary monocytes, 10 ug/ml mAb, PE secondary. A general note: Flow cytometry measures light scatter and fluorescence of single cells or particles in a stream.
For assay [3] the target is unchanged. Briefly: flow cytometry on human primary macrophages, 10 ug/ml mAb, PE secondary.
Assay [4] has the same target. The assay can be described thus: flow cytometry on human primary dendritic cells, 10 ug/ml mAb, PE secondary.
Assay [5] deals with Histidine-tagged human Siglec-9 (NovoProtein) (human) (UniProt Q9Y336). Briefly: SPR Biacore T200, 25 C, 25 nM mAb captured on anti-mouse IgG CM5 chip, His-tagged Siglec-9 200 nM as analyte, single-concentration 1:1 fit. In general terms: Surface plasmon resonance follows binding to a sensor surface in real time, without labels.
In assay [6] the target is Siglec-9-Fc (R&D Systems, catalog number 1139-SL-050) (human) (UniProt Q9Y336). Briefly: FACS ligand competition: 25 ug/ml mAb pre-coupled with 25 ug/ml Siglec-9-Fc, binding to sialic acid ligands on U937 cells, anti-human IgG-PE.
Siglec-9-Fc (R&D Systems, catalog number 1139-SL-050) (human), sequence (Q9Y336 18-348 limits assumed): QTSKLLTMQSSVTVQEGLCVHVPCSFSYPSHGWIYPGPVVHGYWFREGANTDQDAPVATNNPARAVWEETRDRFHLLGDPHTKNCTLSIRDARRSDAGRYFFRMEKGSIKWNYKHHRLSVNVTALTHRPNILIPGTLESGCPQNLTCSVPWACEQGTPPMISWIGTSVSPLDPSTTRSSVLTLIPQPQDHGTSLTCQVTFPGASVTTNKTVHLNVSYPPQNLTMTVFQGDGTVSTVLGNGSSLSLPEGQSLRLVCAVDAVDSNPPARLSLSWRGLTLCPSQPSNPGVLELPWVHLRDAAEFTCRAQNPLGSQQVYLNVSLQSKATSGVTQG

human Siglec-9 expressed on human cells (human), sequence (Q9Y336 18-463): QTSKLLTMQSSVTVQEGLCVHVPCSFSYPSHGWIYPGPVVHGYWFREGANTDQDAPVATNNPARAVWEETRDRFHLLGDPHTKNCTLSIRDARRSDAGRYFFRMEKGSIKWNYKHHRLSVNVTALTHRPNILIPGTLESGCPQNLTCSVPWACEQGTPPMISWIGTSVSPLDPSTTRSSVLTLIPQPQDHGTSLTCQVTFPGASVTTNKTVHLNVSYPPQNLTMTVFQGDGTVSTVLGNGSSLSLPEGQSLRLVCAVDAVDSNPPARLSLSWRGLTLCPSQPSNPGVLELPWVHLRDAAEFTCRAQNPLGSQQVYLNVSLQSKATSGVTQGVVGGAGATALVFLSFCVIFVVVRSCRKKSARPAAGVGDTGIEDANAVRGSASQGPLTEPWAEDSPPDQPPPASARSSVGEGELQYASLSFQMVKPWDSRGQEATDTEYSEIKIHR
Histidine-tagged human Siglec-9 (NovoProtein) (human), sequence (Q9Y336 18-348 limits assumed): as the sequence (Q9Y336 18-348 limits assumed) above

B1: anti-Siglec-9 antibody 6D8 (antibody, IgG2b, V domains shown, part only)
VH: VQLQQSGAELVKPGASVKLSCKASGYTFTSYWMHWVKQRPGQGLEWIGEIDPSDSYTYYNQKFKGKATLTVDKSSSTAYMQLSSLTSEDSAVYYCAAYYSNYVRAYWGQGTLVTVSA
VL: DIQKPQSPFYMCVSGGETISISSHTTRGIYWYKGGSAEKPEKPFKLEIYCARNGEGGAPSRFSGRGSGTDFSLTINRGESEDCAEYYCAQFYQFPWTFGGGTKLEIK
As to B1, in assay [1], the Percent Siglec-9 Surface Expression, DCs (% Siglec-9) was 60.2%; the Percent Siglec-9 Surface Expression, Macrophages (% Siglec-9) came to 21.3%; the Percent Siglec-9 Surface Expression, Microglia (% Siglec-9) amounted to 45.4%; the Percent Siglec-9 Surface Expression, Monocytes (% Siglec-9) was 42.2%. Besides, in assay [1], the Percent Siglec-9 Surface Expression, THP-1 cells (% Siglec-9) turned out to be 62.6%. In assay [2], this molecule yielded a % Positive of 29.6% and an MFI of 198. Further, in assay [3], the % Positive was 93.5% and the MFI worked out at 473. Further, in assay [4], the % Positive came out at 27.6% and the MFI came to 197. The Kd in assay [5] came to 6.7 nM. The same molecule returned a Percent Siglec-9-Fc Binding in assay [6] of 97.8%.

As a reminder, the Kd is the constant that tells how readily two partners part at equilibrium. Low readings indicate higher affinity, high ones lower affinity.
